B1: Cmpd #21 (anti-FX/anti-FIX(a) VHH polypeptide derivative) (bispecific antibody)
chain: DVQLVESGGGVVQPGGSLQLSCAASGGTKSRYAMGWFRQAPGQEREFVAAISRRGGSTNYADSVKGRFTISRDNSKNTVYLDMDDLRPEDTALYYCAADDSVGDGYLDYWGQGTLVTVSSGQAPGQEVQLVESGGGVVQPGGSLQLSCAASGRTFNIYTMSWFRQDPGQEREFVAGLRWTDSSTEYADSVKGRFTISRDNSKNTVYLQMDSLRPEDTALYYCAADRSFLFAQALGATKNYEYWGQGTLVTVSSGQACPC
modifications: C16 diacid protractor (P2) via linker LP1 on Cys4 and Cys6 in C-term extension (SEQ ID NO: 9)
B2: Cmpd #19 (anti-FX/anti-FIX(a) VHH polypeptide derivative) (bispecific antibody)
chain: DVQLVESGGGVVQPGGSLQLSCAASGGTKSRYAMGWFRQAPGQEREWVAAISRRGGSTNYADSVKGRFTISRDNSKNTVYLQMDSLRPEDTALYYCAADDSVGDGYLDYWGQGTLVTVSSGQAPGQEVQLVESGGGVVQPGGSLQLSCAASGRTFNIYTMSWFRQAPGQEREFVAGLRWTDSSTEYADSVKGRFTISRDNSKNTVYLQMDSLRPEDTALYYCAADRSFLFAQALGATKNYEYWGQGTLVTVSSGQACPC
modifications: C16 diacid protractor (P2) via linker LP1 on Cys4 and Cys6 in C-term extension (SEQ ID NO :9)
B3: Cmpd #16 (anti-FX/anti-FIX(a) VHH polypeptide derivative) (bispecific antibody)
chain: DVQLVESGGGVVQPGGSLQLSCAASGGTKRRLAMGWFRQAPGQEREWVAAISRRGGSTNYADSVKGRFTISRDNSKNTVYLDMDDLRPEDTALYYCAADDSVGDGYLDYWGQGTLVTVSSGQAPGQEVQLVESGGGVVQPGGSLRLSCAASGRYFNIYTMSWFRQDPGQEREFVAGLRWTDSSTEYADSVKGRFTISRDNSKNTVYLQMNSLRPEDTALYYCAADRSFLFAQALGATKNYEYWGQGTLVTVSSGQACPC
modifications: C16 diacid protractor (P2) via linker LP1 on Cys4 and Cys6 in C-term extension (SEQ ID NO: 9)
B4: Cmpd #14 (anti-FX/anti-FIX(a) VHH polypeptide derivative) (bispecific antibody)
chain: DVQLVESGGGVVQPGGSLQLSCAASGGTKRRLAMGWFRQAPGQEREFVAAISRRGGSTNYADSVKGRFTISRDNSKNTVYLQMDSLRPEDTALYYCAADDSVGDGYLDYWGQGTLVTVSSGQAPGQEVQLVESGGGVVQPGGSLQLSCAASGRTFNIYTMSWFRQAPGQEREFVAGLRWTDSSTEYADSVKGRFTISRDNSKNTVYLQMDSLRPEDTALYYCAADRSFLFAQALGATKNYEYWGQGTLVTVSSGQACPC
modifications: C16 diacid protractor (P2) via linker LP1 on Cys4 and Cys6 in C-term extension (SEQ ID NO: 9)
notes: Single chain of two VHH: anti-FX (N-terminal) and anti-FIX(a) (C-terminal); also called VHH1.14-L1-2-VHH2.14-E
B5: Cmpd #17 (anti-FX/anti-FIX(a) VHH polypeptide derivative) (bispecific antibody)
chain: DVQLVESGGGVVQPGGSLQLSCAASGGTKSRYAMGWFRQAPGQEREWVAAISRRGGSTNYADSVKGRFTISRDNSKNTVYLDMDDLRPEDTALYYCAADDSVGDGYLDYWGQGTLVTVSSGQAPGQEVQLVESGGGVVQPGGSLQLSCAASGRTFNIYTMSWFRQDPGQEREFVAGLRWTDSSTEYADSVKGRFTISRDNSKNTVYLQMDSLRPEDTALYYCAADRSFLFAQALGATKNYEYWGQGTLVTVSSGQACPC
modifications: C16 diacid protractor (P2) via linker LP1 on Cys4 and Cys6 in C-term extension (SEQ ID NO: 9)
B6: Cmpd #12 (anti-FX/anti-FIX(a) VHH polypeptide derivative) (bispecific antibody)
chain: DVQLVESGGGVVQPGGSLQLSCAASGGTKRRLAMGWFRQAPGQEREFVAAISRRGGSTNYADSVKGRFTISRDNSKNTVYLDMDDLRPEDTALYYCAADDSVGDGYLDYWGQGTLVTVSSGQAPGQEVQLVESGGGVVQPGGSLQLSCAASGRTFNIYTMSWFRQDPGQEREFVAGLRWTDSSTEYADSVKGRFTISRDNSKNTVYLQMDSLRPEDTALYYCAADRSFLFAQALGATKNYEYWGQGTLVTVSSGQACPC
modifications: C16 diacid protractor (P2) via linker LP1 on Cys4 and Cys6 in C-term extension (SEQ ID NO: 9)
notes: Single chain of two VHH: anti-FX (N-terminal) and anti-FIX(a) (C-terminal); also called VHH1.12-L1-2-VHH2.12-E
B7: Cmpd #7 (anti-FX/anti-FIX(a) VHH polypeptide derivative) (bispecific antibody)
chain: DVQLVESGGGVVQPGGSLQLSCAASGGTKSRYAMGWFRQAPGQEREFVAAISRRGGSTNYADSVKGRFTISRDNSKNTVYLQMDSLRPEDTALYYCAADDSVGDGYLDYWGQGTLVTVSSGQAPGQEVQLVESGGGVVQPGGSLRLSCAASGRTFNIYTMSWFRQAPGQEREFVAGLRWTDSSTEYADSVKGRFTISRDNSKNTVYLQMNSLRPEDTALYYCAADRSFLFAQALGATKNYEYWGQGTLVTVSSGQACPC
modifications: C16 diacid protractor (P2) via linker LP1 on Cys4 and Cys6 in C-term extension (SEQ ID NO: 9)
notes: Single chain of two VHH: anti-FX (N-terminal) and anti-FIX(a) (C-terminal)
B8: Cmpd #8 (anti-FX/anti-FIX(a) VHH polypeptide derivative) (bispecific antibody)
chain: DVQLVESGGGVVQPGGSLQLSCAASGGTKSRYAMGWFRQAPGQEREFVAAISRRGGSTNYADSVKGRFTISRDNSKNTVYLQMDSLRPEDTALYYCAADDSVGDGYLDYWGQGTLVTVSSGQAPGQEVQLVESGGGVVQPGGSLQLSCAASGRTFNIYTMSWFRQAPGQEREFVAGLRWTDSSTEYADSVKGRFTISRDNSKNTVYLQMDSLRPEDTALYYCAADRSFLFAQALGATKNYEYWGQGTLVTVSSGQACPC
modifications: C16 diacid protractor (P2) via linker LP1 on Cys4 and Cys6 in C-term extension (SEQ ID NO: 9)
notes: as for B7
B9: Cmpd #11 (anti-FX/anti-FIX(a) VHH polypeptide derivative) (bispecific antibody)
chain: DVQLVESGGGVVQPGGSLQLSCAASGGTKRRLAMGWFRQAPGQEREFVAAISRRGGSTNYADSVKGRFTISRDNSKNTVYLDMDDLRPEDTALYYCAADDSVGDGYLDYWGQGTLVTVSSGQAPGQEVQLVESGGGVVQPGGSLRLSCAASGRTFNIYTMSWFRQDPGQEREFVAGLRWTDSSTEYADSVKGRFTISRDNSKNTVYLQMNSLRPEDTALYYCAADRSFLFAQALGATKNYEYWGQGTLVTVSSGQACPC
modifications: C16 diacid protractor (P2) via linker LP1 on Cys4 and Cys6 in C-term extension (SEQ ID NO: 9)
notes: as for B7
B10: Cmpd #9 (anti-FX/anti-FIX(a) VHH polypeptide derivative) (bispecific antibody)
chain: DVQLVESGGGVVQPGGSLQLSCAASGGTKSRYAMGWFRQAPGQEREFVAAISRRGGSTNYADSVKGRFTISRDNSKNTVYLDMDDLRPEDTALYYCAADDSVGDGYLDYWGQGTLVTVSSGQAPGQEVQLVESGGGVVQPGGSLRLSCAASGRTFNIYTMSWFRQDPGQEREFVAGLRWTDSSTEYADSVKGRFTISRDNSKNTVYLQMNSLRPEDTALYYCAADRSFLFAQALGATKNYEYWGQGTLVTVSSGQACPC
modifications: C16 diacid protractor (P2) via linker LP1 on Cys4 and Cys6 in C-term extension (SEQ ID NO: 9)
notes: as for B7
B11: Cmpd #10 (anti-FX/anti-FIX(a) VHH polypeptide derivative) (bispecific antibody)
chain: DVQLVESGGGVVQPGGSLQLSCAASGGTKRRLAMGWFRQAPGQEREWVAAISRRGGSTNYADSVKGRFTISRDNSKNTVYLQMDSLRPEDTALYYCAADDSVGDGYLDYWGQGTLVTVSSGQAPGQEVQLVESGGGVVQPGGSLRLSCAASGRTFNIYTMSWFRQAPGQEREFVAGLRWTDSSTEYADSVKGRFTISRDNSKNTVYLQMNSLRPEDTALYYCAADRSFLFAQALGATKNYEYWGQGTLVTVSSGQACPC
modifications: C16 diacid protractor (P2) via linker LP1 on Cys4 and Cys6 in C-term extension (SEQ ID NO: 9)
notes: as for B7
B12: Cmpd #4 (anti-FX/anti-FIX(a) VHH polypeptide derivative) (bispecific antibody)
chain: DVQLVESGGGVVQPGGSLRLSCAASGRTHSRYAMGWFRQAPGKEREFVAAISRRGGSTNYADSVKGRFTISRDNSKNTVYLQMNSLRPEDTALYYCAADDSSGDGYLDYWGQGTLVTVSSGGGGSGGGSEVQLVESGGGVVQPGGSLRLSCAASGRTFNIYTMSWFRQAPGKEREFVAGLRWTDSSTEYADSVKGRFTISRDNSKNTVYLQMNSLRPEDTALYYCAADRSFLFAQALGATKNYEYWGQGTLVTVSSGGGGSCHHHHHH
modifications: C18 diacid protractor (P3) via linker LP1 on Cys6 in C-term extension (SEQ ID NO: 7)
notes: as for B7
B13: Cmpd #5 (anti-FX/anti-FIX(a) VHH polypeptide derivative) (bispecific antibody)
chain: DVQLVESGGGVVQPGGSLQLSCAASGRTHSRYAMGWFRQAPGQEREFVAAISRRGGSTNYADSVKGRFTISRDNSKNTVYLQMDSLRPEDTALYYCAADDSSGDGYLDYWGQGTLVTVSSGGGGSGGGSEVQLVESGGGVVQPGGSLQLSCAASGRTFNIYTMSWFRQAPGQEREFVAGLRWTDSSTEYADSVKGRFTISRDNSKNTVYLQMDSLRPEDTALYYCAADRSFLFAQALGATKNYEYWGQGTLVTVSSGGGGSCHHHHHH
modifications: C18 diacid protractor (P3) via linker LP1 on Cys6 in C-term extension (SEQ ID NO: 7)
notes: as for B7

Legend:
[1] = molecular target: T1, human plasma-derived FX (Haematologic Technologies Inc, USA) (human, UniProt P00742 41-179; P00742 183-488); assay: cell-based or functional assay
[2] = molecular target: T1, human plasma-derived FX (Haematologic …); assay: SPR, FX captured on immobilised anti-GLA-FX antibody, steady state analysis, 25 C
Procedure: Briefly, an anti-GLA-FX, prepared recombinantly as described above, was immobilised on a CM4 sensor chip or a Xantec HLC200M using standard amine coupling chemistry at pH 5. 10 nM FX (Haematologic Technologies, USA) was injected at a flow rate of 10 μL/min for 30 seconds. Subsequently 1000, 100, 10, 1, 0.1 and 0 nM of VHH polypeptide compound, according to Table 9, below were injected at a flow rate of 50 μL/min for 200 seconds to allow for binding to FX followed by a flow of 10 minutes with a running buffer (10 mM HEPES, 150 mM NaCl, 5 mM CaCl₂), 0.05% (v/v) Surfactant P20, 1 mg/mL bovine serum albumin, pH 7.4) injection allowing for dissociation from FX. The running buffer was also used for dilution of anti-FX VHH polypeptide compounds. Regeneration of the chip was achieved using a regeneration buffer consisting of 50 mM EDTA in running buffer, 30 seconds contact time, and a 30 μL/min flow rate. The binding data were collected at 25° C. and were analysed according to a 1:1 model using BiaEvaluation 4.1 supplied by the manufacturer (Biacore AB, Uppsala or Bruker Analyser).
(§1) Therefore, the reported KD values are determined based on steady state analysis.

[3] = molecular target: T2, Benefix (Pfizer Inc, USA), FIX (human, UniProt P00740 47-461); assay: SPR, FIX (Benefix) captured on immobilised anti-GLA-FIX antibody, steady state analysis, 25 C
T2 construct: Bought product; also called FIX (Benefix®)
Procedure: Briefly, anti-GLA-FIX, prepared recombinantly as described above, was immobilised on a CM4 sensor chip or a Xantec HLC200M using standard amine coupling chemistry at pH 5. FIX (10 nM) was injected at a flow rate of 10 μL/min for 1 minute. Subsequently 1000, 100, 10, 1, 0.1 and 0 nM of VHH polypeptide compound were injected at a flow rate of 30 μL/min for 4 minutes to allow for binding to the FIX (Benefix®) followed by a flow of 5 minutes running buffer (10 mM HEPES, 150 mM NaCl, 5 mM CaCl₂), 0.05% (v/v) Surfactant P20, 1 mg/mL bovine serum albumin, pH 7.4) injection allowing for dissociation from FIX. The running buffer was also used for dilution of anti-FIX VHH polypeptide compounds. Regeneration of the chip was achieved using a regeneration buffer consisting of 50 mM EDTA in running buffer, 30 seconds contact time, and a 30 μL/min flow rate. The binding data were collected at 25° C. and were analysed according to a 1:1 model using BiaEvaluation 4.1 supplied by the manufacturer (Biacore AB, Uppsala).
as §1

T1 sequence (P00742 41-179, chain 1 of 2): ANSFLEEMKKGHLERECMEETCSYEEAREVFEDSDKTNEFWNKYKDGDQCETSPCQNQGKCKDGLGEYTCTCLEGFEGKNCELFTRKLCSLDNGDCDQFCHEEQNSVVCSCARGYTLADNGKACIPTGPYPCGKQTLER
T1 sequence (P00742 183-488, chain 2 of 2): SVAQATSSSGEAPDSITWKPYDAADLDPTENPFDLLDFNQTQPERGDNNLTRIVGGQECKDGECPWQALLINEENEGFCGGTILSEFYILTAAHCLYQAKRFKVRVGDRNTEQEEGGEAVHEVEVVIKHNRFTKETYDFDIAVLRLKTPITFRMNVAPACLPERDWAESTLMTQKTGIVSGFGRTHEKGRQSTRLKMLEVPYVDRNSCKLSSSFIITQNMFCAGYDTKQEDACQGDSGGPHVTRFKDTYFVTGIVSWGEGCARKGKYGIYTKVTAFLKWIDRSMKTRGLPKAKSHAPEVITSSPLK
T2 sequence (P00740 47-461 T194A limits assumed): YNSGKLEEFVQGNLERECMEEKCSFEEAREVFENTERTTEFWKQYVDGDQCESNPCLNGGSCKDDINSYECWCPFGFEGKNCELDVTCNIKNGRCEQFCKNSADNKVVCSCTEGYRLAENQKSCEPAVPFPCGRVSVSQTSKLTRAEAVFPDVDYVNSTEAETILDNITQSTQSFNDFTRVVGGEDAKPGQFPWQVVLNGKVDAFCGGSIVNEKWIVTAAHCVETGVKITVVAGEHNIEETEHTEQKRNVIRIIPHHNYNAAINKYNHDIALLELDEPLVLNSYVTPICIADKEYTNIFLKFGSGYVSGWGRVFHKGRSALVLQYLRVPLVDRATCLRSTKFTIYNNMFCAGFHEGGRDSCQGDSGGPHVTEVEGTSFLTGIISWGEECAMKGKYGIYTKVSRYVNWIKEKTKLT

Binder	KM (nM) of FX activation by 0.1 nM FIXa on phospholipid vesicles with 5 nM compound [1] [nM]	kcat/KM (1/(min * nM)) of FX activation by 0.1 nM FIXa with 5 nM compound [1] [M⁻¹ s⁻¹]	Kd [2] [nM]	Kd [3] [nM]
B1	3.9	4.5e+06		
B2	8.2	5e+06		
B3	7.1	2.33e+06		
B4			42	1.6
B5	9	2.5e+06		
B6			26	7.8
B7			82	2.3
B8	4.8	4.5e+06	96	2.5
B9			42	6.4
B10			70	1.1
B11			190	5.5
B12			229	11.7
B13			199	2.7

Reference: patent US20240067944A1 (published 2024)
